# US20090092614A1 (Biogen, published 2009)
# Like-named read-outs stand apart in the source and are kept apart here.
# B1: M14-C03.G4.P.agly (antibody, human IgG4 S228P, kappa, V domains shown)
# VH: EVQLLESGGGLVQPGGSLRLSCAASGFTFSKYMMSWVRQAPGKGLEWVSYISPSGGLTWYADSVKGRFTISRDNSKNTLYLQMNSLRAEDTAVYYCARDGARGYGMDVWGQGTTVTVSS
# VL: DIQMTQSPATLSLSPGERATLSCRASQSVSSYLAWYQQKPGQAPRLLIYDASNRATGIPARFSGSGSGTDFTLTISSLEPEDFAVYYCQQRSNWPPEVTFGPGTKVDIKR
# notes: Aglycosylated human IgG4 (S228P, T299A), kappa; also called M14-C03_Ab
# B2: M14-G11.G4.P.agly (antibody, human IgG4 S228P, kappa, V domains shown)
# VH: EVQLLESGGGLVQPGGSLRLSCAASGFTFSNYPMYWVRQAPGKGLEWVSRISSSGGRTVYADSVKGRFTISRDNSKNTLYLQMNSLRAEDTAVYYCARDRWSRSAAEYGLGGYWGQGTLVTVSS
# VL: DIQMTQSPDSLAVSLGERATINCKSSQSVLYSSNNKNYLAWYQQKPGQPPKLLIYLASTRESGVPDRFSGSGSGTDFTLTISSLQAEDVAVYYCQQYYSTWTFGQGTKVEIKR
# notes: Aglycosylated human IgG4 (S228P, T299A), kappa; also called M14-G11_Ab; Biotin-G11
# B3: M14-G11.G4.P (antibody, human IgG4, V domains shown)
# VH: EVQLLESGGGLVQPGGSLRLSCAASGFTFSNYPMYWVRQAPGKGLEWVSRISSSGGRTVYADSVKGRFTISRDNSKNTLYLQMNSLRAEDTAVYYCARDRWSRSAAEYGLGGYWGQGTLVTVSS
# VL: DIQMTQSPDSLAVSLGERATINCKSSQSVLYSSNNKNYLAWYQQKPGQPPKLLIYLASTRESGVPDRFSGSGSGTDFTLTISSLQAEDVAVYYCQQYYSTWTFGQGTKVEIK
# notes: Full-length human IgG4.P, kappa; also called M14.G11.P; G4 version of M14-G11
# B4: M14-G11 Fab (Fab, V domains shown)
# VH: EVQLLESGGGLVQPGGSLRLSCAASGFTFSNYPMYWVRQAPGKGLEWVSRISSSGGRTVYADSVKGRFTISRDNSKNTLYLQMNSLRAEDTAVYYCARDRWSRSAAEYGLGGYWGQGTLVTVSS
# VL: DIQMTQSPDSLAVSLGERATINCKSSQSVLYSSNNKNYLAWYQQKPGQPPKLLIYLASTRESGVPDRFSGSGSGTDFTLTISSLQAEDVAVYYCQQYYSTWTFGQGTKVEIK
# notes: Human kappa Fab (phage library, or papain digest of the full-length antibody)
# B5: M14-B01 Fab (Fab, V domains shown)
# VH: EVQLLESGGGLVQPGGSLRLSCAASGFTFSNYHMAWVRQAPGKGLEWVSVISPTGGRTTYADSVKGRFTISRDNSKNTLYLQMNSLRAEDTATYYCARAGYSYGYGYFDYWGQGTLVTVSS
# VL: DIQMTQFPATLSVSPGERATLSCRASQSVMRNLAWYQQKPGQPPRLLIYGASKRATGIPARFSGSGSGTAFTLTISNLEPEDFAVYYCHQRSTWPLGTFGPGTKLEAK
# notes: Human kappa Fab from a phage library
# B6: M13-C06.G4.P.agly (antibody, human IgG4 S228P, kappa, V domains shown)
# VH: EVQLLESGGGLVQPGGSLRLSCAASGFTFSIYRMQWVRQAPGKGLEWVSGISPSGGTTWYADSVKGRFTISRDNSKNTLYLQMNSLRAEDTAVYYCARWSGGSGYAFDIWGQGTMVTVSS
# VL: DIQMTQSPLSLSASVGDRVTITCQASRDIRNYLNWYQQKPGKAPKLLIYDASSLQTGVPSRFGGSGSGTDFSFTIGSLQPEDIATYYCQQFDSLPHTFGQGTKLEIKR
# notes: Aglycosylated human IgG4 (S228P, T299A, EU numbering), kappa; also called M13-C06_Ab; Eu-C06
# B7: M13-C06 Fab (Fab, V domains shown)
# VH: EVQLLESGGGLVQPGGSLRLSCAASGFTFSIYRMQWVRQAPGKGLEWVSGISPSGGTTWYADSVKGRFTISRDNSKNTLYLQMNSLRAEDTAVYYCARWSGGSGYAFDIWGQGTMVTVSS
# VL: DIQMTQSPLSLSASVGDRVTITCQASRDIRNYLNWYQQKPGKAPKLLIYDASSLQTGVPSRFGGSGSGTDFSFTIGSLQPEDIATYYCQQFDSLPHTFGQGTKLEIK
# notes: as for B5
# B8: M12-E01 Fab (Fab, V domains shown)
# VH: EVQLLESGGGLVQPGGSLRLSCAASGFTFSPYSMLWVRQAPGKGLEWVSSIGSSGGSTRYADSVKGRFTISRDNSKNTLYLQMNSLRAEDTAMYYCARVRGILHYDILIGRNLYYYYMDVWGKGTTVTVSS
# VL: QYELTQPPSVSEAPRQRVTISCSGSSSNIGNNAINWYQQLPGKPPKLLIYYDDLLPSGVSDRFSGSKSGTSGSLAISGLQSEDEADYYCAAWDDNLNGVIFGGGTKLTVL
# notes: Human lambda Fab from a phage library
# B9: M12-G04 Fab (Fab, V domains shown)
# VH: EVQLLESGGGLVQPGGSLRLSCAASGFTFSKYTMHWVRQAPGKGLEWVSSIVSSGGWTDYADSVKGRFTISRDNSKNTLYLQMNSLRAEDTAVYYCARDRSIAAAGTGWSVSFVDWFDPWGQGTLVTVSS
# VL: DIQMTQSPLSLSASVGDRVTITCRASQSINGYLNWYQQKPGKAPNLLIYATSSLQSGVPSRFSGSGSGTDFTLTISSLQPEDFATYYCQQSYSTPPYTFGQGTKLEIK
# notes: as for B5
# Legend:
# hIGF-1R-Fc mutant SD113 = target: T1, hIGF-1R-Fc mutant SD113 (human, UniProt P08069 31-933); assay: KD grade of mutant hIGF-1R-Fc; S = binding to antibody was ablated by mutation
# T1 construct: build as m36 with the substitutions; also called E570A I571T
# hIGF-1R-Fc mutant SD104 = target: T2, hIGF-1R-Fc mutant SD104 (human, UniProt P08069 31-933); assay: as above
# T2 construct: build as m36 with the substitution; also called H464A; not shown: C-terminal human IgG1-Fc tag and its junction
# hIGF-1R-Fc mutant SD110 = target: T3, hIGF-1R-Fc mutant SD110 (human, UniProt P08069 31-933); assay: as above
# T3 construct: build as m36 with the substitution; also called E533H; not shown: C-terminal human IgG1 Fc tag
# hIGF-1R-Fc mutant SD109 = target: T4, hIGF-1R-Fc mutant SD109 (human, UniProt P08069 31-933); assay: as above
# T4 construct: build as m36 with the substitutions; also called Y482A R483W; not shown: C-terminal human IgG1-Fc tag and its junction
# hIGF-1R-Fc mutant SD103 = target: T5, hIGF-1R-Fc mutant SD103 (human, UniProt P08069 31-933); assay: as above
# T5 construct: build as m36 with the substitutions; also called D461A V462T
# hIGF-1R-Fc mutant SD015 [1] = target: T6, hIGF-1R-Fc mutant SD015 (human, UniProt P08069 31-933); assay: as above
# T6 construct: Positions count without the signal peptide; also called H464E; not shown: human IgG1 Fc tag
# hIGF-1R-Fc mutant SD108 = target: T7, hIGF-1R-Fc mutant SD108 (human, UniProt P08069 31-933); assay: as above
# T7 construct: build as m36 with the substitution; also called H480E; not shown: C-terminal human IgG1-Fc tag and its junction
# hIGF-1R-Fc mutant SD102 = target: T8, hIGF-1R-Fc mutant SD102 (human, UniProt P08069 31-933); assay: as above
# T8 construct: build as m36 with the substitutions; also called E459A S460A
# human IGF-1R(1-903)-Fc [2] = target: T9, human IGF-1R(1-903)-Fc (human, UniProt P08069 31-933); assay: blocking ELISA, competitor 640 nM IGF-2
# T9 construct: Made by Biogen Idec; also called hIGF-1R-Fc; IGF-1R-Fc
# human IGF-1R(1-903)-Fc [3] = target: T9, human IGF-1R(1-903)-Fc; assay: blocking ELISA, competitor 320 nM IGF-1
# sIGF-1R(1-903) [4] = target: T10, sIGF-1R(1-903) (human, UniProt P08069 31-933); assay: ITC, 37 °C
# T10 construct: also called soluble recombinant human IGF-1R ectodomain
# Experimental: (§1) These protein solutions were adjusted to the concentrations listed above by dialyzing in PBS. ITC experiments were performed on an ITC200 microcalorimeter (MicroCal, LLC). […] A four minute equilibration period was used between all injections with an initial delay of 60 seconds. […] The lower limit of the protein concentrations capable of generating sufficient signal by calorimetry to measure a change in heat was ˜2-4 micromolar protein.
# sIGF-1R(1-903) [5] = target: T10, sIGF-1R(1-903); assay: ITC, 5 °C
# Experimental: as §1
# human IGF-1R(1-903)-Fc [6] = target: T9, human IGF-1R(1-903)-Fc; assay: competition ELISA: biotinylated hIGF-1R-Fc on streptavidin plate, M14-G11 titrated in 20 nM human IGF-1 His (blocked ligand)
# sIGF-1R(1-903) [7] = target: T10, sIGF-1R(1-903); assay: ITC, 25 °C
# Experimental: as §1
# human IGF-1R(1-903)-Fc [8] = target: T9, human IGF-1R(1-903)-Fc; assay: competition ELISA: biotinylated hIGF-1R-Fc on streptavidin plate, M14-G11 titrated in 320 nM human IGF-1 His (blocked ligand)
# human IGF-1R(1-903)-Fc [9] = target: T9, human IGF-1R(1-903)-Fc; assay: competition ELISA: biotinylated hIGF-1R-Fc on streptavidin plate, antibody titrated in 320 nM human IGF-1 His (blocked ligand), anti-His-HRP detection
# human IGF-1R(1-903)-Fc [10] = target: T9, human IGF-1R(1-903)-Fc; assay: ELISA on plate-coated soluble IGF-1R-Fc, goat anti-human kappa-HRP
# Experimental: (§2) The absorbance was measured at 450 nm, background 540 nm for TMB using the Molecular Devices plate reader. Data was analyzed using the SOFTMAX PRO software package version 4.3 LS (Molecular Devices Corp.).
# human IGF-1R(1-903)-Fc [11] = target: T9, human IGF-1R(1-903)-Fc; assay: as above; remark: listed apart in the source
# Experimental: as §2
# hIGF-1R-Fc mutant SD008 = target: T11, hIGF-1R-Fc mutant SD008 (human, UniProt P08069 31-933); assay: SPR
# T11 construct: Positions count without the signal peptide; also called S257F; not shown: human IgG1 Fc tag
# hIGF-1R-Fc mutant SD012 = target: T12, hIGF-1R-Fc mutant SD012 (human, UniProt P08069 31-933); assay: SPR
# T12 construct: Positions count without the 30-residue signal peptide; also called E303G; not shown: human IgG1 Fc tag
# human INSR(28-956)-His10 [12] = target: T13, human INSR(28-956)-His10 (human, UniProt P06213 28-956); assay: ELISA on plate-coated rh-INSR, goat anti-human kappa-HRPO
# T13 construct: range 28-956; Bought (R&D Systems); also called rh-INSR (R&D 1544-IR); INSR-His10
# Experimental: (§3) ELISA assays were performed to determine specific binding of the Fab fragment antibodies to soluble IGF-1R over the insulin receptor. […] Color development was stopped by addition of 4NH₂SO₄ and optical density is measured at 450 nm using a Molecular Devices plate reader and binding curves are generated.
# [13] = target: T14, human IGF-1R(1-902)-His10 (human, UniProt P08069 31-932); assay: ELISA on plate-coated rh-IGF-1R, goat anti-human kappa-HRPO
# T14 construct: Bought (R&D Systems); also called hIGF-1R-His10; IGF-1R-His
# Experimental: as §3
# [14] = target: human IGF-1R (full length, on cells) (human, UniProt P08069 31-740; P08069 741-1367); assay: cell-based or functional assay
# sIGF-1R(1-903) [15] = target: T10, sIGF-1R(1-903); assay: ITC, 15 °C
# Experimental: as §1
# hIGF-1R-Fc mutant SD015 [16] = target: T6, hIGF-1R-Fc mutant SD015; assay: SPR, Fab over captured mutant
# Experimental: After, completion of the receptor-Fc loading step, flow rates were elevated to 5 μl/min. […] At the end of each sensorgram, the flow rate was elevated to 30 μl/min and the chip surface was regenerated by 2×10 μL injections of 0.1 M glycine, pH 2.
# human INSR(28-956)-His10 [17] = target: T13, human INSR(28-956)-His10; assay: ELISA, rh-INSR coated
# Experimental: as §3
# T13 sequence (P06213 other isoform, or with tags, fused parts or gaps limits assumed): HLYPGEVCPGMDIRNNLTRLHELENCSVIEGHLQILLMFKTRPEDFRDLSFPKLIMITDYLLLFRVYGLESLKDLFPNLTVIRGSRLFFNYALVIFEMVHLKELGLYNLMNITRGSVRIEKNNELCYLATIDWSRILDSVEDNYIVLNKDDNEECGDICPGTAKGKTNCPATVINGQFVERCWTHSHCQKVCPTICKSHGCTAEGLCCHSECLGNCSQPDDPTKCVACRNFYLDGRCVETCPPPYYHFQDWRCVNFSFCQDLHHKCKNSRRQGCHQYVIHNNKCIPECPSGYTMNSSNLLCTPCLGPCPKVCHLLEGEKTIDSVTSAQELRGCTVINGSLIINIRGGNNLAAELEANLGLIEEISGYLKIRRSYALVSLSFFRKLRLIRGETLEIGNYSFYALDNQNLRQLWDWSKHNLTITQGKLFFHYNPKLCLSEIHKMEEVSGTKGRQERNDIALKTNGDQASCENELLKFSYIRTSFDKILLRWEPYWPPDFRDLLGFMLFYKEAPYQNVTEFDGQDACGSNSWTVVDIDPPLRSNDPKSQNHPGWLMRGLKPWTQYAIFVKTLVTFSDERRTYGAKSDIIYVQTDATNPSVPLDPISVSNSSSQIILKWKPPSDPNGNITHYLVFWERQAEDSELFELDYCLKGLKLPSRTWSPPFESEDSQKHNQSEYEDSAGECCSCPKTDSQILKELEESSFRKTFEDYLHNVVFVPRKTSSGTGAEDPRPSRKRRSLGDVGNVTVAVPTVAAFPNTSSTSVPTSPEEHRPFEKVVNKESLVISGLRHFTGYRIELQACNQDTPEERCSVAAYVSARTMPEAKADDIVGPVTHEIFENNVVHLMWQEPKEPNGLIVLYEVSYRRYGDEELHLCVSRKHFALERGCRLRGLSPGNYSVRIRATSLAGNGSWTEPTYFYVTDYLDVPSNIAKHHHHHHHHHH
# T9 sequence (P08069 31-933): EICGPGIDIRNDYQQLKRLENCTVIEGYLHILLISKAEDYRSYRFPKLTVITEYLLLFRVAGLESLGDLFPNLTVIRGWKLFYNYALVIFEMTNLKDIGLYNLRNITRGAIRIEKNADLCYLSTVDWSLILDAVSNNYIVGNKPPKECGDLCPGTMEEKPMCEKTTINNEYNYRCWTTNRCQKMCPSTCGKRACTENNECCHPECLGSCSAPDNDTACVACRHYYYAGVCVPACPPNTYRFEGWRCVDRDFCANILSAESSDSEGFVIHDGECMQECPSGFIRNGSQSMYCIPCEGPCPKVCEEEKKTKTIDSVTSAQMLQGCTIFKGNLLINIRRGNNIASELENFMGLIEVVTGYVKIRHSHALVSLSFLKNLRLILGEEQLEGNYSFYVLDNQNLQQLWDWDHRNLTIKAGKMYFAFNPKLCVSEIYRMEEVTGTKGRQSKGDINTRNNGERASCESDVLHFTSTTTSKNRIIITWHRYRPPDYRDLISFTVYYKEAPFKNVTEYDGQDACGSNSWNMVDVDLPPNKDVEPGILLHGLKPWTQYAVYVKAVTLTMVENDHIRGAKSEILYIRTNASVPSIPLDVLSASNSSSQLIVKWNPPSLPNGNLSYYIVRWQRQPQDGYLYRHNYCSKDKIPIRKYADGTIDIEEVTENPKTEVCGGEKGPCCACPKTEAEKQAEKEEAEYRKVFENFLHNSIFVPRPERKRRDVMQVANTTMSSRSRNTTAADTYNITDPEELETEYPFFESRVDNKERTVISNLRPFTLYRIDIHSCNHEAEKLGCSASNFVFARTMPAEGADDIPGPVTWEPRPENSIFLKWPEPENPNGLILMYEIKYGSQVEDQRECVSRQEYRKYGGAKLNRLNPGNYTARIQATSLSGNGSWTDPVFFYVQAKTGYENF
# T10 sequence (P08069 31-933): as above
# T6 sequence (P08069 other isoform, or with tags, fused parts or gaps mutant): as the sequence (P08069 31-933) above, with H464E counted along it
# T11 sequence (P08069 other isoform, or with tags, fused parts or gaps mutant): as the sequence (P08069 31-933) above, with S257F counted along it
binder,measurement,setting,value
B1,binding result,hIGF-1R-Fc mutant SD113,no binding
same,binding result,hIGF-1R-Fc mutant SD104,no binding
same,binding result,hIGF-1R-Fc mutant SD110,no binding
same,binding result,hIGF-1R-Fc mutant SD109,no binding
same,binding result,hIGF-1R-Fc mutant SD103,no binding
same,binding result,hIGF-1R-Fc mutant SD015 [1],no binding
same,binding result,hIGF-1R-Fc mutant SD108,no binding
same,binding result,hIGF-1R-Fc mutant SD102,no binding
same,% IGF-2 inhibition upon antibody saturation,human IGF-1R(1-903)-Fc [2],21%
same,% IGF-1 inhibition upon antibody saturation,human IGF-1R(1-903)-Fc [3],19%
B2,stoichiometry of binding (N),sIGF-1R(1-903) [4],0.7
same,ΔH°,sIGF-1R(1-903) [4],-39.5 kcal/mol
same,stoichiometry of binding (N),sIGF-1R(1-903) [5],0.9
same,ΔH°,sIGF-1R(1-903) [5],-6.7 kcal/mol
same,IC50 (read off the curve),human IGF-1R(1-903)-Fc [6],~2 nM
same,stoichiometry of binding (N),sIGF-1R(1-903) [7],0.91
same,ΔH°,sIGF-1R(1-903) [7],-26.6 kcal/mol
same,IC50 (read off the curve),human IGF-1R(1-903)-Fc [8],~6 nM
same,% IGF-2 inhibition upon antibody saturation,human IGF-1R(1-903)-Fc [2],1%
same,IC50 (read off the curve),human IGF-1R(1-903)-Fc [9],~6 nM
same,EC50 (read off the curve),human IGF-1R(1-903)-Fc [10],~0.05 nM
same,% IGF-1 inhibition upon antibody saturation,human IGF-1R(1-903)-Fc [3],1%
B3,EC50 (read off the curve),human IGF-1R(1-903)-Fc [11],~0.05 nM
B4,fold loss in affinity against wild type,hIGF-1R-Fc mutant SD008,~3 fold
same,fold loss in affinity against wild type,hIGF-1R-Fc mutant SD012,~3 fold
B5,binding result,human INSR(28-956)-His10 [12],no binding
same,EC50 (read off the curve),[13],~5 nM
B6,stoichiometry of binding (N),sIGF-1R(1-903) [4],0.97
same,ΔH°,sIGF-1R(1-903) [4],-29.2 kcal/mol
same,stoichiometry of binding (N),sIGF-1R(1-903) [5],0.89
same,ΔH°,sIGF-1R(1-903) [5],-11.3 kcal/mol
same,stoichiometry of binding (N),sIGF-1R(1-903) [7],0.98
same,ΔH°,sIGF-1R(1-903) [7],-20.1 kcal/mol
same,% IGF-2 inhibition upon antibody saturation,human IGF-1R(1-903)-Fc [2],16%
same,Inhibition of IGF-1 stimulated phosphorylation of IGF-1R (IC50 nM),[14],< 0.13 nM
same,Inhibition of IGF-2 stimulated phosphorylation of IGF-1R (IC50 nM),[14],< 0.63 nM
same,stoichiometry of binding (N),sIGF-1R(1-903) [15],0.98
same,ΔH°,sIGF-1R(1-903) [15],-14.4 kcal/mol
same,% IGF-1 inhibition upon antibody saturation,human IGF-1R(1-903)-Fc [3],25%
B7,Biacore Relative RUmax,hIGF-1R-Fc mutant SD015 [16],0.04
B8,binding result,human INSR(28-956)-His10 [17],no binding (tested: 2 µM)
B9,binding result,human INSR(28-956)-His10 [12],no binding (tested: about 5000 nM (baseline markers overlap))
